Laboratory results from patent US20060110800A1 (ZymoGenetics, published 2006).

Target: T1, 125I-IL-13 (UniProt P35225 35-146, limits assumed, 125I label (site not stated))
T1 construct: also called labeled IL-13; interleukin 13
Experiment: saturation binding analysis of 125I-IL-13 on BHK cells expressing Zcytor2
Experimental: The binding of ¹²⁵I-IL-13 to wild-type and Zcytor2-transfected BHK, TF-1, and BaF3 cells was determined. BHK cells were assayed in 6-well culture plates. TF-1 and BaF3 cells were assayed in microcentrifuge tubes. Cells were combined with 500 μl of either solution A (15 ml of binding buffer [RPMI containing 20 mM Tris pH7.4, 0.05% NaN₃, and 3 mg/ml BSA] plus 263 μl of ¹²⁵I-IL-13 [5.7×10⁷ cpm/ml]) or solution B (solution A containing 15 μl of cold 25 μg/ml IL-13). After a 2-hour incubation, cells were washed three times with 500 μl binding buffer and lysed in 500 μl of 400 mM NaOH. Lysates were transferred to tubes for gamma counting.

T1 sequence (P35225 35-146 limits assumed): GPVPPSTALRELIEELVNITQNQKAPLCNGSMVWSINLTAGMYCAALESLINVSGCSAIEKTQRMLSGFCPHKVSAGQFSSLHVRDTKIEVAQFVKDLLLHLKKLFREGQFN

B1: human Zcytor2 receptor expressed on transfected BHK cells (receptor)
chain: SSDTEIKVNPPQDFEIVDPGYLGYLYLQWQPPLSLDHFKEYTVEYELKYRNIGSETWKTIITKNLHYKDGFDLNKGIEAKIHTLLPWQCTNGSEVQSSWAETTYWISPQGIPETKVQDMDCVYYNWQYLLCSWKPGIGVLLDTNYNLFYWYEGLDLALQCVDYIKADGQNIGCRFPYLEASDYKDFYICVNGSSENKPIRSSYFTFQLQNIVKPLPPVYLTFTRESSCEIKLKWGIPLGPIPARCFDYEIEIREDDTTLVTATVENETYTLKTTNETRQLCFVVRSKVNIYCSDDGIWSEWSDKQCWEGEDLSKKTLLRFWLPFGFILILVIFVTGLLLRKPNTYPKMIPEFFCDT
notes: also called BHK/Zcytor2 cells; Zcytor2-transfected BHK
A Kd of 0.59 nM was found for B1 in this work.
